Measurements as given in patent publication US20030166537A1, “Use of GDNF for treating corneal defects” (Biopharm Gesellschaft Zur Biotechnologischen Entwicklung …, priority 1999, published 2003).

Experiments:
[1] = tested on: ERK1, ERK2, JNK1 and JNK2; experiment: western blot of phosphorylated MAP kinases in cultured human corneal stromal keratocytes; assay type: cell-based
Experimental: In order to evaluate the effect of GDNF and other neurotrophic factors on the activation of signal transduction pathways in cultured corneal epithelial and stromal keratocytes, western blots were performed for detecting an accumulation of phosphorylated MAP kinases ERK and JNK in the presence of GDNF, NGF and BDNF. Human stromal keratocytes were cultured in RPMI 1640 medium containing L-glutamine (glutaMAX) or DMEM with 10% FBS for one day and starved in serum-free medium for another day. Cultures were then washed with PBS and incubated in serum-free DMEM without additives or with recombinant human GDNF (200 ng/ml), recombinant human NGF (200 ng/ml) and recombinant human BDNF (200 ng/ml) (all obtained from R & D Systems, Mineapolis, Minn., USA) for 30 min. Some cultures were incubated with an inhibitor of MAP kinases (PD 98059, Torcris Cookson Ballwin, Mo., USA) at 100 μM for 1 h prior to exposure to neurotrophines. After washing with PBS, culture cells were solubilized in lysis buffer containing 50 mM Tris-Cl (pH 8.0), 150 mM NaCl, 0.02% sodium azide, 100 μg/ml PMSF, 1% Triton X-100 and a mixture of several protein inhibitors (Complete®, Boehringer Mannheim) (one tablet/50 ml buffer). 50 μg total protein per lane was fractionated by a 10% STS-MOPS NUPAGE Bis-tris gel (NOVEX, San Diego, Calif., USA) and blotted onto nitrocellulose membrane. Membranes were stained with diluted polyclonal antibodies against ERK1, ERK2, JNK1 and JNK2 (Santa Cruz Biotechnology, Santa Cruz, Calif., USA). Also a polyclonal antibody was used which recognizes the […] form of either ERK1 and ERK2 which was raised against the catalytic core of the phosphorylated threonine residue 183 and tyrosine residue 185 of mammalian ERK2. Similarily, a polyclonal antibody recognizing the phosphorylated form of JNK1 and JNK2 was used (both from Promega). In the last step the membranes were visualized with the ECL western blot analysis system (Amersham).

[2] = tested on: corneal ulcer; experiment: topical therapy of corneal ulcer in a human patient; assay type: in vivo; conditions: one patient
Experimental: […] Corneal ulcer accompanied by massive inflammation on the left. Epithelial defect of 3.8×3.0 mm in size, furthermore ulcus of corneal stroma in form of a punched-out defect comprising 80% of the thickness of the cornea. No pain sensation of the cornea and significant accompanying inflammation of the eye. The patient was treated with recombinant human (rh) GNDF (0.2 mg/ml) (25 μl/dose) in 2 hours intervals for 48 hours, then the doses were reduced to 20 μl 6 times per day. After healing of the epithelium the concentration was reduced to 0.1 mg/ml, and 20 μl doses were given 5 times per day. For adminstration, lyophilized recombinant human GDNF was diluted in sterile balanced salt solution (Alcon, Freiburg Germany).

[3] = tested on: FAK, Pyk2, cRaf, MEK1, Erk 1 and 2, Elk, RSK; experiment: western blot of phosphorylated intracellular signaling proteins in corneal epithelial cells; assay type: cell-based, human
Experimental: In order to investigate which protein kinase cascades are activated by GDNF and artemin, corneal epithelial cells from the cell line were seeded at a density of 5×10^5 cells/75 cm^2 and cultured in SHEM with 10% FBS for one day. Cultures were then washed with PBS and incubated in serum-free SHEM without additives or with GDNF (200 ng/ml) or with artemin (250 ng) for 10 to 40 minutes. After washing with PBS, cultured cells were solubilized in lysis buffer containing 50 mM Tris2Cl (pH8.0), 150 mM NaCl, 0.02% sodium azide, 100 μg/ml phenylmethylsulfonyl fluoride, 1 mM Na3VO4, 1% Triton X-100 and a mixture of several protease inhibitors [complete™, Boehringer Mannheim (1 tablet/30 ml buffer)]. 80 μg total protein per lane was fractionated by NuPAGE 10% SDS-MOPS-Bis-Tris gel or NuPAGE 3-8% Tris-acetate gel (all from NOVEX, San Diego, Calif.) and blotted onto a nitrocellulose membrane. Phosphorylated proteins were detected with phospho-specific antibodies and visualized with the ECL western blot analysis system (Amersham). Antibodies against phospho-Raf(ser259), phospho-MEK1/2(ser217/221), phospho-MAPK (Erk1/2) (thr202/tyr204), phospho-p90 ribosomal S6 kinase (RSK) (ser381) and phospho-Elk-1(ser383) were obtained from New England Biolabs (Beverly, Mass.). Antibody against phospho-FAK (tyr397/tyr407/tyr576/tyr577/tyr861/tyr925) and phospho-Pyk2 (tyr402/tyr579/tyr/580/tyr881) were purchased from Biosource (Camarillo, Calif., USA). A monoclonal antibody against phospho-tyrosine came from Sigma (Deisenhofen, Germany).

[4] = tested on: primary human corneal epithelial cells; experiment: in vitro wound healing assay (scratch wound), primary cells; assay type: cell-based; conditions: 250 ng/ml; 18 h; control less than 10%
Experimental: (§1) For in vitro wound healing assays primary corneal epithelial cells and cells from the corneal epithelial cell line were seeded at a density of 5×10^5 onto 60 mm plastic dishes with 2 mm grid (Sarstedt, Numbrecht, Germany) and cultured for 2 days until subconfluency. For experiments with artemin primary cultured rabbit corneal epithelial cells were used. These cells had been isolated with Dispase (1,2 U/ml) and trypsin/EDTA. Rabbit cells had been cultured in medium 500 with additives (Cascade Biologies).
The cell layer was injured under the microscope by inducing several parallel scratches with a soft plastic cell scrubber (Falcon, Becton and Dickinson, Heidelberg, Germany). The tip of the scrubber was cut and measured about 1 mm and consequently the width of the scratch in the cell layer was also about 1 mm. Selected areas in the dishes were marked with a very fine marker pen and consecutive images were taken at different time points at 5×magnification under an inverted phase contrast microscope (Axiovert 25, Zeiss, Jena, Germany) equipped with a video camera. Following the experimental injury dishes were incubated in SHEM medium either containing no growth factors (control) or containing either GDNF (250 ng/ml) (recombinant human GDNF expressed in E. coli), NGF (250 ng/ml) (Boehringer Mannheim, Germany) or EGF ([…]). For experiments investigating artemin cells were cultured in medium 500 without additives and 250 ng artemin was added. For each condition four representative areas were evaluated within three dishes. The mean diameter of the scratch in each representative area was set as 100% at the beginning of the experiment. 18 hours later the mean diameter of the same scratch was calculated again and expressed in percent of the diameter at the beginning of the experiment.

[5] = tested on: corneal epithelial cells; experiment: in vitro wound healing model with herbimycin A; assay type: cell-based; conditions: 250 ng/ml GDNF alone; 18 hours
Experimental: as §1
The cell layer was injured under the microscope by inducing several parallel scratches with a soft plastic cell scrubber (Falcon, Becton and Dickinson, Heidelberg, Germany). The tip of the scrubber was cut and measured about 1 mm and consequently the width of the scratch in the cell layer was also about 1 mm. Selected areas in the dishes were marked with a very fine marker pen and consecutive images were taken at different time points at 5×magnification under an inverted phase contrast microscope (Axiovert 25, Zeiss, Jena, Germany) equipped with a video camera. […] For each condition four representative areas were evaluated within three dishes. […] 18 hours later the mean diameter of the same scratch was calculated again and expressed in percent of the diameter at the beginning of the experiment. […]

[6] = rhGDNF 0.2 mg/ml eye drops, topical
[7] = GDNF 200 ng/ml, within 10 minutes
[8] = GDNF 200 ng/ml, within 40 minutes

B1: GDNF: recombinant human GDNF having the amino acid sequence of human wild-type GDNF (GenBank L19063, L15306) (protein)
chain: SPDKQMAVLPRRERNRQAAAANPENSRGKGRRGQRGKNRGCVLTAIHLNVTDLGLGYETKEELIFRYCSGSCDAAETTYDKILKNLSRNRRLVSDKVGQACCRPIAFDDDLSFLDDNLVYHILRKHSAKRCGCI
activated JNK2 [1]: not induced
phosphorylation of ERK1 and ERK2 ([1]; 200 ng/ml factor vs control): induced ERK1 to a limited extent
phosphorylation of JNK1 ([1]; vs serum-free medium): weakly induced
start of wound healing [2, 6]: 2 days
time to complete wound healing of the epithelium [2, 6]: 3 weeks
inflammation and subjective afflictions after healing of the epithelium ([2]; rhGDNF topical): significant reduction
thickness of the stroma ([2]; rhGDNF topical): continuous increase
serine phosphorylation of Elk [3, 7]: significantly induced
serine phosphorylation of MEK1 [3, 7]: significantly induced
serine phosphorylation of cRaf [3, 7]: significantly induced
tyrosine/threonine phosphorylation of Erk 1 and 2 [3, 7]: significantly induced
phosphorylation of Pyk2 [3, 8]: phosphorylated
tyrosine phosphorylation of FAK [3, 8]: gradually increased
phosphorylation of RSK ([3]; in response to GDNF): not detectable
gap in the cell monolayer filled [4]: 16.5±6%
wound gap filled with cells [5]: 37.9±8.1%
